According to paper PMC9352680, “A comprehensive thermodynamic model for RNA binding by the Saccharomyces cerevisiae Pumilio protein PUF4”:
Substitutions are numbered along the chain they refer to. Numbers in names are those of the source.

T1: PUF4 RNA-binding domain (Saccharomyces cerevisiae, UniProt P25339 537-888)
T1 sequence: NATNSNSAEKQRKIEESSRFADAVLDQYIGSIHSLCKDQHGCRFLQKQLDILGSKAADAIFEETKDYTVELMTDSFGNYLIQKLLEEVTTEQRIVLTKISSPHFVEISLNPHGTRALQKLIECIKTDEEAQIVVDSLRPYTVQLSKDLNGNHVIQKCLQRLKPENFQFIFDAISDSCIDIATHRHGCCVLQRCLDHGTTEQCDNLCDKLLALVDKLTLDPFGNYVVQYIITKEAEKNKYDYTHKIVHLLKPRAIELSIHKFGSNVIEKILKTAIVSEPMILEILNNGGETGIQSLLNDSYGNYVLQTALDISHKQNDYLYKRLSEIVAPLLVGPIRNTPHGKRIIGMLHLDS

B1: Ie_S1_P4E.1_K4.1_C4.1_H4.1_[+1CTCT]_A4.1_F4.1_T4.1 (ssRNA)
RNA: UCUCUUUCUCUGUAUAUUAUCUCUU
B2: Ie_S1_P4E.1_K4.1_C4.1_H4.1_[+1TCTC]_A4.1_F4.1_T4.1 (ssRNA)
RNA: UCUCUUUUCUCGUAUAUUAUCUCUU
B3: Ie_S1_P4E.1_K4.1_C4.1_H4.1_[+1TTCC]_A4.1_F4.1_T4.1 (ssRNA)
RNA: UCUCUUUUUCCGUAUAUUAUCUCUU
B4: Ie_S1_P4E.1_K4.1_C4.1_H4.1_[+1CCCT]_A4.1_F4.1_T4.1 (ssRNA)
RNA: UCUCUUUCCCUGUAUAUUAUCUCUU
B5: Ie_S1_P4E.1_K4.1_C4.1_H4.1_[+1CTCTC]_A4.1_F4.1_T4.1 (ssRNA)
RNA: UCUCUUUCUCUCGUAUAUUAUCUCUU
B6: Ie_S1_P4E.1_K4.1_C4.1_H4.1_[+1TCTCT]_A4.1_F4.1_T4.1 (ssRNA)
RNA: UCUCUUUUCUCUGUAUAUUAUCUCUU
B7: Ie_S1_P4E.1_K4.1_C4.1_H4.1_[+1CCTCT]_A4.1_F4.1_T4.1 (ssRNA)
RNA: UCUCUUUCCUCUGUAUAUUAUCUCUU
B8: Ie_S1_P4E.1_K4.1_C4.1_H4.1_[+1TTCCT]_A4.1_F4.1_T4.1 (ssRNA)
RNA: UCUCUUUUUCCUGUAUAUUAUCUCUU
B9: Ie_S1_P4E.1_K4.1_C4.1_H4.1_A4.1_F4.1_[+8T]_T4.1 (ssRNA)
RNA: UCUCUUUGUAUAUUUAUCUCUU
B10: Ie_S1_P4E.1_K4.1_C4.1_H4.1_[+1CCCTT]_A4.1_F4.1_T4.1 (ssRNA)
RNA: UCUCUUUCCCUUGUAUAUUAUCUCUU
B11: Ie_S1_P4E.1_K4.1_C4.1_H4.1_[+2C]_A4.1_F4.1_T4.1 (ssRNA)
RNA: UCUCUUUGCUAUAUUAUCUCUU
B12: Ie_S1_P4E.1_K4.1_C4.1_H4.1_[+2CC]_A4.1_F4.1_T4.1 (ssRNA)
RNA: UCUCUUUGCCUAUAUUAUCUCUU
B13: Ie_S1_P4E.1_K4.1_C4.1_H4.1_[+2CT]_A4.1_F4.1_T4.1 (ssRNA)
RNA: UCUCUUUGCUUAUAUUAUCUCUU
B14: Ie_S1_P4E.1_K4.1_C4.1_H4.1_[+2TC]_A4.1_F4.1_T4.1 (ssRNA)
RNA: UCUCUUUGUCUAUAUUAUCUCUU
B15: Ie_S1_P4E.1_K4.1_C4.1_H4.1_[+2TT]_A4.1_F4.1_T4.1 (ssRNA)
RNA: UCUCUUUGUUUAUAUUAUCUCUU
B16: Ie_S1_P4E.1_K4.1_C4.1_H4.1_[+2CCT]_A4.1_F4.1_T4.1 (ssRNA)
RNA: UCUCUUUGCCUUAUAUUAUCUCUU
B17: Ie_S1_P4E.1_K4.1_C4.1_H4.1_[+2CTC]_A4.1_F4.1_T4.1 (ssRNA)
RNA: UCUCUUUGCUCUAUAUUAUCUCUU
B18: Ie_S1_P4E.1_K4.1_C4.1_H4.1_[+2TCC]_A4.1_F4.1_T4.1 (ssRNA)
RNA: UCUCUUUGUCCUAUAUUAUCUCUU
B19: Ie_S1_P4E.1_K4.1_C4.1_H4.1_[+3TCT]_A4.1_F4.1_T4.1 (ssRNA)
RNA: UCUCUUUGUUCUAUAUUAUCUCUU
B20: Ic_S2_P3E.1_K3.1_C3.1_H3.1_A3.1_F3.1_[T7G]_[A8C]_T3.1 (ssRNA)
RNA: UUUGAUUAAUAUGAUAUCGUUCUUUCUUGUAUAGCUUCUUUCUCGAUAUCAUAUUAAUCUUU
B21: Ie_S1_P4E.1_K4.1_C4.1_H4.1_[+2TCT]_A4.1_F4.1_T4.1 (ssRNA)
RNA: UCUCUUUGUCUUAUAUUAUCUCUU
B22: Ie_S1_P4E.1_K4.1_C4.1_H4.1_[+3TTT]_A4.1_F4.1_T4.1 (ssRNA)
RNA: UCUCUUUGUUUUAUAUUAUCUCUU
B23: Ie_S1_P4E.1_K4.1_C4.1_H4.1_[+2CTCT]_A4.1_F4.1_T4.1 (ssRNA)
RNA: UCUCUUUGCUCUUAUAUUAUCUCUU
B24: Ie_S1_P4E.1_K4.1_C4.1_H4.1_[+3CTCT]_A4.1_F4.1_T4.1 (ssRNA)
RNA: UCUCUUUGUCUCUAUAUUAUCUCUU
B25: Ie_S1_P4E.1_K4.1_C4.1_H4.1_[+2CCTC]_A4.1_F4.1_T4.1 (ssRNA)
RNA: UCUCUUUGCCUCUAUAUUAUCUCUU
B26: Ie_S1_P4E.1_K4.1_C4.1_H4.1_[+2TTCC]_A4.1_F4.1_T4.1 (ssRNA)
RNA: UCUCUUUGUUCCUAUAUUAUCUCUU
B27: Ie_S1_P4E.1_K4.1_C4.1_H4.1_[+2CCCT]_A4.1_F4.1_T4.1 (ssRNA)
RNA: UCUCUUUGCCCUUAUAUUAUCUCUU
B28: Ie_S1_P4E.1_K4.1_C4.1_H4.1_[+2CTCTC]_A4.1_F4.1_T4.1 (ssRNA)
RNA: UCUCUUUGCUCUCUAUAUUAUCUCUU
B29: Ie_S1_P4E.1_K4.1_C4.1_H4.1_[+2TCTCT]_A4.1_F4.1_T4.1 (ssRNA)
RNA: UCUCUUUGUCUCUUAUAUUAUCUCUU
B30: Ie_S1_P4E.1_K4.1_C4.1_H4.1_[+2CCTCT]_A4.1_F4.1_T4.1 (ssRNA)
RNA: UCUCUUUGCCUCUUAUAUUAUCUCUU
B31: Ic_S2_P3E.1_K3.1_C3.1_H3.1_A3.1_F3.1_[T7G]_[A8T]_T3.1 (ssRNA)
RNA: B20 RNA with C35U
B32: Ie_S1_P4E.1_K4.1_C4.1_H4.1_[+3TC]_A4.1_F4.1_T4.1 (ssRNA)
RNA: UCUCUUUGUUCAUAUUAUCUCUU
B33: Ie_S1_P4E.1_K4.1_C4.1_H4.1_[+3CTC]_A4.1_F4.1_T4.1 (ssRNA)
RNA: UCUCUUUGUCUCAUAUUAUCUCUU
B34: Ie_S1_P4E.1_K4.1_C4.1_H4.1_[+3TCTC]_A4.1_F4.1_T4.1 (ssRNA)
RNA: UCUCUUUGUUCUCAUAUUAUCUCUU
B35: Ie_S1_P4E.1_K4.1_C4.1_H4.1_[+3TTCC]_A4.1_F4.1_T4.1 (ssRNA)
RNA: UCUCUUUGUUUCCAUAUUAUCUCUU
B36: Ie_S1_P4E.1_K4.1_C4.1_H4.1_[+3CTCTC]_A4.1_F4.1_T4.1 (ssRNA)
RNA: UCUCUUUGUCUCUCAUAUUAUCUCUU
B37: Ie_S1_P4E.1_K4.1_C4.1_H4.1_[+3TCTCT]_A4.1_F4.1_T4.1 (ssRNA)
RNA: UCUCUUUGUUCUCUAUAUUAUCUCUU
B38: Ie_S1_P4E.1_K4.1_C4.1_H4.1_[+3TTCCT]_A4.1_F4.1_T4.1 (ssRNA)
RNA: UCUCUUUGUUUCCUAUAUUAUCUCUU
B39: If_S1_P5E.1_K5.1_C5.1_H5.1_A5.1_F5.1_T5.1 (ssRNA)
RNA: UCUCUUUGUAUUAUUAUCUCUU
B40: Ie_S1_P5E.1_K5.1_C5.1_H5.1_[+4C]_A5.1_F5.1_T5.1 (ssRNA)
RNA: UCUCUUUGUACUUAUUAUCUCUU
B41: Ie_S1_P5E.1_K5.1_C5.1_H5.1_A5.1_[+5C]_F5.1_T5.1 (ssRNA)
RNA: UCUCUUUGUAUCUAUUAUCUCUU
B42: Ic_S2_P3E.1_K3.1_C3.1_H3.1_A3.1_F3.1_[T7C]_[A8G]_T3.1 (ssRNA)
RNA: B20 RNA with G34C, C35G
B43: Ie_S1_P4E.1_K4.1_C4.1_H4.1_[+4TT]_A4.1_F4.1_T4.1 (ssRNA)
RNA: UCUCUUUGUAUUUAUUAUCUCUU
B44: Ie_S1_P4E.1_K4.1_C4.1_H4.1_[+4CCC]_A4.1_F4.1_T4.1 (ssRNA)
RNA: UCUCUUUGUACCCUAUUAUCUCUU
B45: Ie_S1_P4E.1_K4.1_C4.1_H4.1_[+4CCT]_A4.1_F4.1_T4.1 (ssRNA)
RNA: UCUCUUUGUACCUUAUUAUCUCUU
B46: Ie_S1_P4E.1_K4.1_C4.1_H4.1_[+4TCC]_A4.1_F4.1_T4.1 (ssRNA)
RNA: UCUCUUUGUAUCCUAUUAUCUCUU
B47: Ie_S1_P5E.1_K5.1_C5.1_H5.1_A5.1_[+5TC]_F5.1_T5.1 (ssRNA)
RNA: UCUCUUUGUAUUCUAUUAUCUCUU
B48: Ie_S1_P4E.1_K4.1_C4.1_H4.1_[+4TCT]_A4.1_F4.1_T4.1 (ssRNA)
RNA: UCUCUUUGUAUCUUAUUAUCUCUU
B49: Ie_S1_P5E.1_K5.1_C5.1_H5.1_[+4CT]_A5.1_F5.1_T5.1 (ssRNA)
RNA: UCUCUUUGUACUUUAUUAUCUCUU
B50: Ie_S1_P5E.1_K5.1_C5.1_H5.1_[+4TT]_A5.1_F5.1_T5.1 (ssRNA)
RNA: UCUCUUUGUAUUUUAUUAUCUCUU
B51: Ie_S1_P5E.1_K5.1_C5.1_H5.1_[+4CTC]_A5.1_F5.1_T5.1 (ssRNA)
RNA: UCUCUUUGUACUCUUAUUAUCUCUU
B52: Ie_S1_P5E.1_K5.1_C5.1_H5.1_A5.1_[+5CTC]_F5.1_T5.1 (ssRNA)
RNA: UCUCUUUGUAUCUCUAUUAUCUCUU
B53: Ia_S2_P3E.1_K3.1_C3.1_H3.1_[T1C]_A3.1_F3.1_T3.1 (ssRNA)
RNA: B20 RNA with U28C, G34U, C35A
B54: Ic_S2_P3E.1_K3.1_C3.1_H3.1_A3.1_F3.1_[T7C]_[A8C]_T3.1 (ssRNA)
RNA: B20 RNA with G34C
B55: Ie_S1_P4E.1_K4.1_C4.1_H4.1_[+4CCTC]_A4.1_F4.1_T4.1 (ssRNA)
RNA: UCUCUUUGUACCUCUAUUAUCUCUU
B56: Ie_S1_P5E.1_K5.1_C5.1_H5.1_A5.1_[+5TCC]_F5.1_T5.1 (ssRNA)
RNA: UCUCUUUGUAUUCCUAUUAUCUCUU
B57: Ie_S1_P4E.1_K4.1_C4.1_H4.1_[+4CCCT]_A4.1_F4.1_T4.1 (ssRNA)
RNA: UCUCUUUGUACCCUUAUUAUCUCUU
B58: Ie_S1_P5E.1_K5.1_C5.1_H5.1_[+4TCTC]_A5.1_F5.1_T5.1 (ssRNA)
RNA: UCUCUUUGUAUCUCUUAUUAUCUCUU
B59: Ie_S1_P4E.1_K4.1_C4.1_H4.1_[+4CCTCT]_A4.1_F4.1_T4.1 (ssRNA)
RNA: UCUCUUUGUACCUCUUAUUAUCUCUU
B60: Ie_S1_P4E.1_K4.1_C4.1_H4.1_[+4TTCCT]_A4.1_F4.1_T4.1 (ssRNA)
RNA: UCUCUUUGUAUUCCUUAUUAUCUCUU
B61: Ie_S1_P5E.1_K5.1_C5.1_H5.1_[+4CCCT]_A5.1_F5.1_T5.1 (ssRNA)
RNA: UCUCUUUGUACCCUUUAUUAUCUCUU

Molecular target: T1, PUF4 RNA-binding domain
Experiment: Mg; RNA-MaP; 20 mM Na-HEPES pH 7.4, 30 mM KOAc, 0.75 mM MgCl2, 0.1% Tween-20, 5% glycerol, 0.1 mg/mL BSA, 2 mM DTT; 25 C; 0.0125-409.6 nM protein
Conditions: tags: N-His6-TEV cleaved; C-SNAP kept, Cy3B-labelled; label: tethered on chip by stalled RNA polymerase

Row | Binder | Kd [nM]
1 | B1 | 0.881
2 | B2 | 19.7
3 | B3 | 36.3
4 | B4 | 1.2
5 | B5 | 27.9
6 | B6 | 0.586
7 | B7 | 0.539
8 | B8 | 1.18
9 | B9 | 2.39
10 | B10 | 0.454
11 | B11 | 107
12 | B12 | 1390
13 | B13 | 870
14 | B14 | 82.9
15 | B15 | 60.9
16 | B16 | 1330
17 | B17 | 583
18 | B18 | 40.4
19 | B19 | 27.2
20 | B20 | 109
21 | B21 | 45.9

Row | Binder | Kd [nM]
22 | B22 | 32.9
23 | B23 | 984
24 | B24 | 121
25 | B25 | 1010
26 | B26 | 101
27 | B27 | 1080
28 | B28 | 733
29 | B29 | 134
30 | B30 | 2130
31 | B31 | 25.9
32 | B32 | 134
33 | B33 | 37.3
34 | B34 | 103
35 | B35 | 83.7
36 | B36 | 948
37 | B37 | 49.6
38 | B38 | 58.7
39 | B39 | 4.68
40 | B40 | 14.3
41 | B41 | 13.7
42 | B42 | 35.1

Row | Binder | Kd [nM]
43 | B43 | 16.2
44 | B44 | 5.85
45 | B45 | 4.83
46 | B46 | 5.92
47 | B47 | 3.27
48 | B48 | 4
49 | B49 | 2.73
50 | B50 | 2.74
51 | B51 | 6.55
52 | B52 | 13.2
53 | B53 | 136
54 | B54 | 21.1
55 | B55 | 12.7
56 | B56 | 10.3
57 | B57 | 6.31
58 | B58 | 21.8
59 | B59 | 27.7
60 | B60 | 19
61 | B61 | 17.8
